Measured values from patent US20240294593A1 (Genentech, published 2024).

molecular target: T1, human PD-1-His (human, UniProt Q15116 25-167, limits assumed); experiment: Octet
T1 construct: Antigen of the Octet assays; not shown: His tag
T1 sequence (Q15116 25-167 limits assumed): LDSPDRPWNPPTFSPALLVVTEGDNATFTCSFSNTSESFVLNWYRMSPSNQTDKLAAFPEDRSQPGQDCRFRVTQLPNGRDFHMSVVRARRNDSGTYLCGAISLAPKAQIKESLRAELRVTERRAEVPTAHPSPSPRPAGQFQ

| Kd [nM] | koff [s⁻¹] | kon [M⁻¹ s⁻¹] | Binder |
| --- | --- | --- | --- |
| 309 | 0.087 | 282000 | H1.151_L1 (antibody, V domains shown, also called VH-W112F; Kabat 100) VH: EVQLVESGGGLVQPGGSLRLSCAASGFTFSSFGMHWVRQAPGKGLEWVSYISSGSSIIYYADSVKGRFTISRDNAKNSLYLQMNSLRAEDTAVYYCARGGRLVFSPDYWGQGTLVTVSS VL: DIVMTQSPDSLAVSLGERATINCKSSQSLLNSGNQKNYLTWYQQKPGQPPKLLIYWASTRESGVPDRFTGSGSGTDFTLTISSLQAEDVAVYYCQNDYSYPFTFGSGTKLEIKR |
| 92.3 | 0.013 | 140000 | H1.147_L1 (antibody, V domains shown, also called VH-V111Q; Kabat 99) VH: EVQLVESGGGLVQPGGSLRLSCAASGFTFSSFGMHWVRQAPGKGLEWVSYISSGSSIIYYADSVKGRFTISRDNAKNSLYLQMNSLRAEDTAVYYCARGGRLQWSPDYWGQGTLVTVSS VL: DIVMTQSPDSLAVSLGERATINCKSSQSLLNSGNQKNYLTWYQQKPGQPPKLLIYWASTRESGVPDRFTGSGSGTDFTLTISSLQAEDVAVYYCQNDYSYPFTFGSGTKLEIKR |

molecular target: T1, human PD-1-His; experiment: Octet [D00120 Figure 65H]
Description: In particular, anti-human IgG-Fc (AHC) biosensors were used to capture the test articles and dipped into multiple concentrations of PD-1.

| Kd [nM] | koff [s⁻¹] | kon [M⁻¹ s⁻¹] | Binder |
| --- | --- | --- | --- |
| 51 | 0.00578 | 113000 | H1_L1.80 (antibody, V domains shown, also called VL-T59H; Kabat 53) VH: EVQLVESGGGLVQPGGSLRLSCAASGFTFSSFGMHWVRQAPGKGLEWVSYISSGSSIIYYADSVKGRFTISRDNAKNSLYLQMNSLRAEDTAVYYCARGGRLVWSPDYWGQGTLVTVSS VL: DIVMTQSPDSLAVSLGERATINCKSSQSLLNSGNQKNYLTWYQQKPGQPPKLLIYWASHRESGVPDRFTGSGSGTDFTLTISSLQAEDVAVYYCQNDYSYPFTFGSGTKLEIKR |
| 43.3 | 0.00411 | 95000 | H1_L1.88 (antibody, V domains shown, also called VL-E61A; Kabat 55) VH: EVQLVESGGGLVQPGGSLRLSCAASGFTFSSFGMHWVRQAPGKGLEWVSYISSGSSIIYYADSVKGRFTISRDNAKNSLYLQMNSLRAEDTAVYYCARGGRLVWSPDYWGQGTLVTVSS VL: DIVMTQSPDSLAVSLGERATINCKSSQSLLNSGNQKNYLTWYQQKPGQPPKLLIYWASTRASGVPDRFTGSGSGTDFTLTISSLQAEDVAVYYCQNDYSYPFTFGSGTKLEIKR |
| 55.5 | 0.00731 | 132000 | H1_L1.79 (antibody, V domains shown, also called VL-T59Q; Kabat 53) VH: EVQLVESGGGLVQPGGSLRLSCAASGFTFSSFGMHWVRQAPGKGLEWVSYISSGSSIIYYADSVKGRFTISRDNAKNSLYLQMNSLRAEDTAVYYCARGGRLVWSPDYWGQGTLVTVSS VL: DIVMTQSPDSLAVSLGERATINCKSSQSLLNSGNQKNYLTWYQQKPGQPPKLLIYWASQRESGVPDRFTGSGSGTDFTLTISSLQAEDVAVYYCQNDYSYPFTFGSGTKLEIKR |
| 64.3 | 0.00603 | 93800 | H1_L1.83 (antibody, V domains shown, also called VL-T59Y; Kabat 53) VH: EVQLVESGGGLVQPGGSLRLSCAASGFTFSSFGMHWVRQAPGKGLEWVSYISSGSSIIYYADSVKGRFTISRDNAKNSLYLQMNSLRAEDTAVYYCARGGRLVWSPDYWGQGTLVTVSS VL: DIVMTQSPDSLAVSLGERATINCKSSQSLLNSGNQKNYLTWYQQKPGQPPKLLIYWASYRESGVPDRFTGSGSGTDFTLTISSLQAEDVAVYYCQNDYSYPFTFGSGTKLEIKR |
| 43.9 | 0.00403 | 91900 | H1_L1.89 (antibody, V domains shown, also called VL-E61G; Kabat 55) VH: EVQLVESGGGLVQPGGSLRLSCAASGFTFSSFGMHWVRQAPGKGLEWVSYISSGSSIIYYADSVKGRFTISRDNAKNSLYLQMNSLRAEDTAVYYCARGGRLVWSPDYWGQGTLVTVSS VL: DIVMTQSPDSLAVSLGERATINCKSSQSLLNSGNQKNYLTWYQQKPGQPPKLLIYWASTRGSGVPDRFTGSGSGTDFTLTISSLQAEDVAVYYCQNDYSYPFTFGSGTKLEIKR |
| 52.6 | 0.00602 | 114000 | H1_L1.82 (antibody, V domains shown, also called VL-T59K; Kabat 53) VH: EVQLVESGGGLVQPGGSLRLSCAASGFTFSSFGMHWVRQAPGKGLEWVSYISSGSSIIYYADSVKGRFTISRDNAKNSLYLQMNSLRAEDTAVYYCARGGRLVWSPDYWGQGTLVTVSS VL: DIVMTQSPDSLAVSLGERATINCKSSQSLLNSGNQKNYLTWYQQKPGQPPKLLIYWASKRESGVPDRFTGSGSGTDFTLTISSLQAEDVAVYYCQNDYSYPFTFGSGTKLEIKR |
| 51.4 | 0.00606 | 118000 | H1_L1.81 (antibody, V domains shown, also called VL-T59D; Kabat 53) VH: EVQLVESGGGLVQPGGSLRLSCAASGFTFSSFGMHWVRQAPGKGLEWVSYISSGSSIIYYADSVKGRFTISRDNAKNSLYLQMNSLRAEDTAVYYCARGGRLVWSPDYWGQGTLVTVSS VL: DIVMTQSPDSLAVSLGERATINCKSSQSLLNSGNQKNYLTWYQQKPGQPPKLLIYWASDRESGVPDRFTGSGSGTDFTLTISSLQAEDVAVYYCQNDYSYPFTFGSGTKLEIKR |
| 50.9 | 0.00552 | 109000 | H1_L1.87 (antibody, V domains shown, also called VL-E61H; Kabat 55) VH: EVQLVESGGGLVQPGGSLRLSCAASGFTFSSFGMHWVRQAPGKGLEWVSYISSGSSIIYYADSVKGRFTISRDNAKNSLYLQMNSLRAEDTAVYYCARGGRLVWSPDYWGQGTLVTVSS VL: DIVMTQSPDSLAVSLGERATINCKSSQSLLNSGNQKNYLTWYQQKPGQPPKLLIYWASTRHSGVPDRFTGSGSGTDFTLTISSLQAEDVAVYYCQNDYSYPFTFGSGTKLEIKR |
| 40.6 | 0.0047 | 116000 | H1_L1.86 (antibody, V domains shown, also called VL-E61S; Kabat 55) VH: EVQLVESGGGLVQPGGSLRLSCAASGFTFSSFGMHWVRQAPGKGLEWVSYISSGSSIIYYADSVKGRFTISRDNAKNSLYLQMNSLRAEDTAVYYCARGGRLVWSPDYWGQGTLVTVSS VL: DIVMTQSPDSLAVSLGERATINCKSSQSLLNSGNQKNYLTWYQQKPGQPPKLLIYWASTRSSGVPDRFTGSGSGTDFTLTISSLQAEDVAVYYCQNDYSYPFTFGSGTKLEIKR |
| 31.8 | 0.00316 | 99400 | H1_L1.85 (antibody, V domains shown, also called VL-E61K; Kabat 55) VH: EVQLVESGGGLVQPGGSLRLSCAASGFTFSSFGMHWVRQAPGKGLEWVSYISSGSSIIYYADSVKGRFTISRDNAKNSLYLQMNSLRAEDTAVYYCARGGRLVWSPDYWGQGTLVTVSS VL: DIVMTQSPDSLAVSLGERATINCKSSQSLLNSGNQKNYLTWYQQKPGQPPKLLIYWASTRKSGVPDRFTGSGSGTDFTLTISSLQAEDVAVYYCQNDYSYPFTFGSGTKLEIKR |
| 46 | 0.00478 | 104000 | H1_L1.84 (antibody, V domains shown, also called VL-E61Q; Kabat 55) VH: EVQLVESGGGLVQPGGSLRLSCAASGFTFSSFGMHWVRQAPGKGLEWVSYISSGSSIIYYADSVKGRFTISRDNAKNSLYLQMNSLRAEDTAVYYCARGGRLVWSPDYWGQGTLVTVSS VL: DIVMTQSPDSLAVSLGERATINCKSSQSLLNSGNQKNYLTWYQQKPGQPPKLLIYWASTRQSGVPDRFTGSGSGTDFTLTISSLQAEDVAVYYCQNDYSYPFTFGSGTKLEIKR |
| 56.8 | 0.00581 | 102000 | H1_L1.78 (antibody, V domains shown, also called VL-T59I; Kabat 53) VH: EVQLVESGGGLVQPGGSLRLSCAASGFTFSSFGMHWVRQAPGKGLEWVSYISSGSSIIYYADSVKGRFTISRDNAKNSLYLQMNSLRAEDTAVYYCARGGRLVWSPDYWGQGTLVTVSS VL: DIVMTQSPDSLAVSLGERATINCKSSQSLLNSGNQKNYLTWYQQKPGQPPKLLIYWASIRESGVPDRFTGSGSGTDFTLTISSLQAEDVAVYYCQNDYSYPFTFGSGTKLEIKR |
